Experimental data taken from PMC12892846, “Biodistribution of the Bombesin Receptor-Targeted Radiopharmaceutical Precursor BBN/C1-C2 in a Prostate Cancer Model” (Modern Technologies in Medicine, 2025).
No end group written: not given here.

Experiments:
[1] = Stability analysis of Cy7.5-labeled peptides in phosphate-buffered saline (HPLC); format: physicochemical
Procedure: After synthesis the chemical purity of the peptides was analyzed by reversed-phase chromatography; we used high-efficiency liquid chromatography: LC-20AD XR (Shimadzu, Japan) equipped with a spectrophotometric detector and a column Luna C18(2) ([…]). The elution was gradient, its mobile phase consisted of deionized water and acetonitrile. The acetonitrile content in a mobile phase was increased from 5% at the beginning of the study to 100% at the end of the study within 40 min. The flow rate was 1 ml/min. Detection was performed at a wavelength of 215 nm, using mass spectrometry with the MALDI-TOF MS FLEX mass spectrometer (Bruker Daltonics, Germany).
We studied the stability of both — the whole structures (Cy7.5-BBN/C1-C2, Cy7.5-GRP, Cy7.5-U5-Sth1a) and also the peptide complexes with Cy7.5. So, all peptides were incubated in the phosphate-buffered saline (pH 7.4) for 144 h, at 37°С. Every 24 h we drew the samples and analyzed them using high-efficiency liquid chromatography LC-20AD XR (Shimadzu, Japan), as described above. The stability of the complex with the dye was fixed similarly to the peptide stability fixation, as following from the accumulation of the free dye in samples.

patients = patients with AMBA therapy; cited from earlier work
Text: The key feature of these peptides is their ability to internalize inside the cells, acting as receptor agonists. At early stages of developing pharmaceuticals, this ability was an important condition for high and long-term absorption of a tumor by a pharmaceutical. However, currently, it appears to be a substantial deficiency, since radiolabeled agonists provide high absorption of radionuclides. One more major drawback of the ligands based on GRPR agonists is their absorption by normal non-tumor cells, particularly, the pancreatic cells. So, the potent GRPR agonist — AMBA (DOTA-Gl ...

[2] = tested on: Nu/Nu mice with PC-3 prostate cancer tumor; experiment: In vivo surface fluorescent imaging of biodistribution; design: species or system mouse; conditions: Cy7.5-labeled peptides, i.v. 19 nmol/kg, Nu/Nu mice with PC-3 tumor, 2 days, n=3
Procedure: The study was carried out on Nu/Nu line male mice aged 9–10 weeks, weighing 26–28 g.
(§1) Since Cy7.5-GRP peptide stability was limited, firstly, 48 h at 37°С in phosphate-buffered saline, there were two time points used in the study — 2 and 5 days. Two weeks prior to the investigation, the animals were subcutaneously inoculated into the right side with PC-3 cells (1 mil cells in RPMI-1640, 100 μl (PanEco, Russia), and matrigel, 100 μl (ABW, China)) to form a tumor. When the tumor reached its optimal size (150–200 mm3), the animals (n=10) were divided into the following groups: group 1 animals were administered a pure dye (n=1); group 2 — were given Cy7.5-GRP peptide (n=3); group 3 — were administered Cy7.5-U5-Sth1a toxin (n=3); group 4 — had Cy7.5-BBN/C1-C2 administered (n=3). The animals were anesthetized with 3% isoflurane inhalation (Chemical Iberica, Spain) at the rate of 1 L/min within 10 min, then the dose was reduced up to 2%. The peptides were injected into the caudal vein at the rate of 19 nmol/kg. […] The regions of interest were manually determined along the organ borderline; then using the software, we calculated the total fluorescence for each region. Finally, the average fluorescence of the peptides in the organ was calculated, it being normalized to the organ weight.

[3] = tested on: Nu/Nu mice with PC-3 prostate cancer tumor; experiment: Semiquantitative ex vivo organ biodistribution on day 5 (fluorescence normalized to organ weight); format: in vivo, mouse; conditions: Cy7.5-labeled peptides, i.v. 19 nmol/kg, day 5, harvested organs, n=3
Procedure: as §1

[4] = tested on: PC-3 prostate cancer solid tumor expressing GRPR; experiment: Tumor fluorescent imaging on days 2 and 5; format: in vivo, mouse; conditions: Cy7.5-labeled peptides, i.v. 19 nmol/kg, PC-3 tumor in Nu/Nu mice
Procedure: as §1

[5] = cited from earlier work
Text: Currently, there have been introduced into clinical practice several radiolabeled ligands targeting GRPR and based on a gastrin-releasing peptide (GRP) analog isolated from amphibian — bombesin (BBN) [[5–8]]. […] In addition to the high concentration of radiopharmaceuticals in non-target organs, there is one more significant problem complicating cancer therapy — pharmaceutical stability.

Substance: Cy7.5-GRP: GRP peptide labeled with Cyanine7.5 fluorescent dye (VPLPAGGGTVLTKMYPRGNHWAVGHLM; ends and bridges not checked; also: Cy7.5 NHS ester bound to peptide amino group (N-terminus or Lys not given here); UniProt P07492 24-50, looked up)
- time to which peptide stability was limited ([1]; 37°C in phosphate-buffered saline): 48 h
- chemical purity / stability after 48 h ([1]; phosphate-buffered saline pH 7.4, 37°C, 48 h, reversed-phase HPLC C18, detection 215 nm): 64.5%
- chemical purity / stability after 144 h ([1]; phosphate-buffered saline pH 7.4, 37°C, 144 h, samples every 24 h, reversed-phase HPLC C18, detection 215 nm): 46.8%
- chemical purity / stability at the start of incubation ([1]; phosphate-buffered saline pH 7.4, 37°C, start of incubation, reversed-phase HPLC C18, detection 215 nm): 95.7%

Substance: DOTA-Gly-4-aminobenzoyl-BBN(7–14) [AMBA]
- absorption by normal organs in patients (patients): significant absorption of the pharmaceutical by the pancreas and the gastrointestinal tract

Substance: GRP: a short peptide with affinity to GRPR receptors (VPLPAGGGTVLTKMYPRGNHWAVGHLM; ends and bridges not checked; UniProt P07492 24-50, looked up)
- main region of binding / accumulation on day 2 [2]: the spleen
- organ of excretion on day 2 [2]: the kidney
- organs of accumulation / localization, ex vivo [3]: localized in the stomach and the pancreas
- localization of labeled peptide in the tumor on day 2 [4]: detected in the tumor to a greater extent than BBN/C1-C2

Substance: N4-AMA-DIG-[DPhe6,Sar11,LeuNHEt13]BBN
- resistance to proteolysis [5]: high resistance to proteolysis

Substance: bombesin
- proteolytic stability [5]: low proteolytic stability
